Values joined by “and” are separate entries in the source; they are usually repeats but may differ in a detail not shown here. Identical values can stand only once.
Assays:
[1] = tested on: CNV; details: intravitreal, out to 28 days, doses above and below clinical dose; cited from earlier work
[2] = tested on: inflammation-induced angiogenesis in the cornea; details: systemic or topical application; cited from earlier work
[3] = tested on: mouse VEGF-A; details: cited from earlier work
[4] = tested on: corneal neovascularization; details: cited from earlier work
[5] = Microsphere diameter by light microscopy and ImageJ; format: physicochemical; details: drug-loaded microspheres, Alone
Excerpt: To measure microsphere diameter, microspheres were fabricated as described above with non-radiolabeled drug. A sample was suspended in ddH2O and imaged with a microscope (×20 objective, Carl Zeiss, Germany).

[6] = Encapsulation efficiency of iodine-125 labelled anti-VEGF by gamma counter; format: physicochemical
Experimental: (§1) Labeled proteins were lyophilized, weighed, and dissolved in 1× phosphate-buffered saline (PBS, pH 7.4) to create stock solutions of 10 mg/mL for each protein, which were stored at −80° C.
For each anti-VEGF agent, encapsulation efficiency (EE) was determined from the radioactivity measured using a gamma counter (Cobra-II Auto-Gamma, Packard Instrument Co., Meriden, CT) before and after microsphere preparation. EE was defined as the percent-drug within the microspheres relative to the theoretical loading amount.

[7] = In vitro release of anti-VEGF from microspheres and microsphere-hydrogel DDS (PBS, 37 C); format: physicochemical; details: for Initial Burst Percent: drug released within first 24 hours; for extension of release by hydrogel: microspheres in hydrogel versus alone; for reduction of initial burst by hydrogel: microspheres in hydrogel versus microspheres alone; for steady release rate: Days 7-196; for duration of release: microspheres suspended in hydrogel
Experimental: as §1
Release of anti-VEGF agents was determined using a separation method also described in Osswald C. R. et al. Briefly, 15 mg of microspheres and 1 mL of the DDS (15 mg microspheres in 1 mL hydrogel) were suspended in 1.5 mL of 1×PBS to ensure detectable levels of anti-VEGF concentration throughout release. Release profiles were conducted at 37° C. under mild agitation and at predetermined intervals, 1 mL of supernatant was removed after a brief centrifugation and replaced with an equal volume of fresh buffer. Supernatants were read using a gamma counter (Packard). Cumulative release was calculated as a percent of encapsulated drug and was considered complete when the microspheres had completely degraded based on visual inspection. The IB was defined as drug released within the first 24 hours.

[8] = tested on: retina; set-up: species or system Long-Evans rats; details: rat, in vivo
Experimental: (§2) All animal procedures were in accordance with protocols approved by the Institutional Animal Care and Use Committee at the Illinois Institute of Technology, and with the principles embodied in the statement on the use of animals in ophthalmic and vision research adopted by the Association for Research in Vision and Ophthalmology. Long-Evans male rats (1-3 months, 300-350 g) were purchased from Harlan Laboratories (Indianapolis, IN, USA). Animals were anesthetized using 80 mg/kg of ketamine hydrochloride (Fort Dodge Animal Health, Fort Dodge, Iowa, USA) and 10 mg/kg xylazine (AnaSed® Injection, Akorn, Inc., Decatur, IL, USA) via intraperitoneal (IP) injection. Proparacaine drops (Bausch and Lomb, Rochester, NY, USA) were used to anesthetize the corneas throughout the procedure and pupils were dilated using phenylephrine (Bausch and Lomb) and atropine drops (Bausch and Lomb). Heart rate and blood oxygen saturation were monitored with a PulseOximeter (8500AV; Nonin Medical Inc., Plymouth, MN, USA). Animals were placed on a custom-built heated stage and monitored to maintain a core body temperature of 37° C.
Animals were separated into six groups to determine the ability of the DDS of this invention to treat CNV. For analysis purposes, lesions were considered independent within each treatment group and each group contained two rats for a total of four eyes and up to 24 lesions per treatment group. […] All IVT injections were 5 μL and performed immediately after CNV induction.
The corneal electroretinogram (ERG) is a non-invasive measurement that represents the overall electrical activity of the retina in response to a stimulus flash. It is routinely used to assess retinal cellular activity and in toxicology studies. Each component of the ERG can be used to assess different retinal cell types and any alterations in the function of the retina due to the DDS would appear as changes in amplitude or sensitivity of various ERG components. Under scotopic conditions, the ERG has two important components: the a-wave and b-wave. The rising edge of the negative a-wave is generated by the photoreceptors in the outer retina; the positive b-wave is generated primarily by the bipolar cells and/or Müller cells. Another component of the ERG is the c-wave, which originates in the RPE and can be used to assess the functional integrity of the photoreceptors, the RPE cells, and the interactions between them; however, for the purposes of this research, the c-wave was not recorded or analyzed.
Under dim red light prior to and at each time point after CNV induction and DDS injection, ERG experiments were performed under scotopic conditions, with animals dark-adapted overnight prior to the experiment. Electroretinograms, in response to the full-field Ganzfeld stimulation, were recorded by a gold wire loop placed on the cornea. The reference and ground electrodes were 30 G platinum subdermal needle electrodes ([…]™ F-E2, Grass Products, Natus Neurology, Warwick, RI, USA) inserted into the cheek and nape of the neck, respectively. A-wave and b-wave intensity responses were recorded by presenting single flashes of increasing intensity (5×10^−4 to 305.7 sc cd·s·m^−2) and allowing the eye to dark adapt for 1 min after each flash. The intensity-response values for the a-wave and b-wave were fit with the Naka-Rushton equation, to determine a half-saturation intensity of the responses and maximal response.
The parameter values obtained from the Naka-Rushton analyses and IOP measurements were compared using the paired t-test verses control. […] Unless otherwise noted, significance represents p<0.05. All values are reported as sample mean±standard error of the mean.

[9] = tested on: laser-induced CNV; assay: Laser-induced CNV rat model, lesion area from late-phase FA images (multi-Otsu thresholding); format: in vivo, Long-Evans rats; details: 5 μL IVT immediately after CNV induction, Weeks 1-12
Experimental: as §2, with “Proparacaine drops (Bausch and Lomb, Rochester, NY, USA) were used to anesthetize the corneas throughout the procedure and pupils were dilated using phenylephrine (Bausch and Lomb) and atropine drops (Bausch and Lomb).” left out, “C. […]” for “C.”
A confocal scanning laser ophthalmoscope (cSLO) system (Heidelberg Retina Angiograph (HRA), Heidelberg Engineering, Heidelberg, Germany) was used to image the retina. FA still images were captured at 1-2 min, 10 min and 20 min after IP injection of 0.5 mL of 20% fluorescein dye (Sigma Aldrich, St. Louis, MO, USA) and were used for quantification of CNV lesion areas. […]
CNV lesion areas were quantified using late-phase FA images. […]

[10] = In vitro single and dual release of DEX nanoparticles and AFL microspheres from hydrogel DDS (Example 3); format: physicochemical; details: first 14 days
Experimental: The DDS for single release consisted of 20 mg of DEX nanoparticles (DEX-np) suspended within a biodegradable N-isopropylacrylamide/poly(ethylene glycol)-co-(L-lactic acid) diacrylate/(NIPAAm/PEG-PLLA-DA) thermoresponsive hydrogel. The dual release consisted of 20 mg of DEX-np and 20 mg of AFL microspheres (AFL-ms) suspended within the hydrogel. DEX release in vitro, with and without AFL-ms, was quantified using NanoDrop™ OneC. Iodine-125 radiolabeled AFL was used to measure encapsulation efficiency into the hydrogel and in vitro release. The initial burst was calculated by quantifying total drug release in the first 24 hours.

[11] = tested on: bovine retina; details: directly after exposure to 0.1 mg/mL; cited from earlier work
[12] = tested on: retina; details: vitreal concentration 6.67-10 mg/mL, 24 hr or 7 days after treatment; cited from earlier work
[13] = in vivo; cited from earlier work
[14] = Release of vancomycin from hydrogel; format: physicochemical; details: VAN encapsulated in hydrogel only
Excerpt: A third example is a DDS where only hydrogel is used to release vancomycin (VAN, antibiotics, 1450 Da). VAN was encapsulated in the hydrogel as a short-term release DDS (e.g., for use as a prophylactic treatment before ocular surgery).

[15] = Bioactivity of vancomycin released from hydrogel; details: throughout release from hydrogel
[16] = Animal modeling of vancomycin hydrogel DDS (subconjunctival injection); format: in vivo
[17] = cited from earlier work

Sequence of mouse VEGF-A (Q00731 205-317 limits assumed): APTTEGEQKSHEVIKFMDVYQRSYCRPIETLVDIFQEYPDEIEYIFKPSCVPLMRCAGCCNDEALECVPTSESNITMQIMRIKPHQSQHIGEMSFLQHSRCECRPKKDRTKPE

Molecule: bevacizumab
- therapeutic effect on CNV [1]: no therapeutic effect was observed
- inhibition of corneal angiogenesis [2]: significantly inhibited inflammation-induced angiogenesis
- binding to mouse VEGF-A [3]: binds to mouse VEGF-A
- corneal angiogenesis ([4]; sub-conjunctival injection): can significantly inhibit corneal angiogenesis
- corneal neovascularization ([4]; topical): limited corneal neovascularization

Molecule: aflibercept
- Diameter [5]: 8.0 ± 0.3 μm
- Encapsulation Efficiency Percent ([6]; microspheres Alone): 44.8 ± 2.0%
- Encapsulation Efficiency Percent ([6]; microspheres in hydrogel): 44.6 ± 1.4%
- rate of release from the DDS, times less than that of ranibizumab ([7]; microsphere-hydrogel DDS): 2.3 ×
- Initial Burst Percent ([7]; microspheres Alone): 83.3 ± 2.1%
- extension of release by hydrogel [7]: 27.2%
- reduction of initial burst by hydrogel [7]: 76%
- steady release rate ([7]; microspheres in hydrogel): 0.065 µg/day
- Initial Burst Percent ([7]; microspheres in hydrogel): 20.1 ± 0.8%
- duration of release [7]: 196 days and ~200 days
- encapsulated drug remaining entrapped in hydrogel after complete degradation of microspheres ([7]; non-degradable hydrogel, end of release): 32.7±1.1%
- a-wave half-saturation intensity versus control [8]: No significant difference
- half-maximal a- or b-wave response (half-saturation intensity) [8]: No significant difference
- maximal a-wave response post-treatment, lower than control [8]: ~40%
- maximal a-wave response, Control versus Week 1-Week 12 [8]: significant difference
- CNV lesion area compared to non-treated animals [9]: significantly smaller CNV lesions compared to non-treated animals at Week 4 and Week 12
- release rates in the presence of DEX-np [10]: increased release rates
- decrease in maximal scotopic b-wave response [11]: 43.1%
- ERG parameters [12]: did not alter any ERG parameters

Molecule: ranibizumab
- Diameter [5]: 7.5 ± 0.4 μm
- Encapsulation Efficiency Percent ([6]; microspheres Alone): 91.3 ± 2.5%
- Initial Burst Percent ([7]; microspheres Alone): 50.3 ± 2.1%
- extension of release by hydrogel [7]: 27.2%
- reduction of initial burst by hydrogel [7]: 58%
- steady release rate ([7]; microspheres in hydrogel): 0.153 µg/day
- Initial Burst Percent ([7]; microspheres in hydrogel): 21.0 ± 2.0%
- duration of release [7]: 196 days and ~200 days
- a-wave parameters (maximal response, half-saturation intensity) versus control [8]: no significant differences
- b-wave parameters versus control [8]: no significant differences
- CNV lesion area compared to non-treated animals [9]: only had a significant decrease in lesion area at Week 12
- half-life t½ [13]: 220 h
- therapeutic effect on CNV [1]: no therapeutic effect was observed

Molecule: CN[C@H](CC(C)C)C(=O)N[C@H]1C(=O)N[C@@H](CC(N)=O)C(=O)N[C@H]2C(=O)N[C@H]3C(=O)N[C@H](C(=O)N[C@H](C(=O)O)c4cc(O)cc(O)c4-c4cc3ccc4O)[C@H](O)c3ccc(c(Cl)c3)Oc3cc2cc(c3O[C@@H]2O[C@H](CO)[C@@H](O)[C@H](O)[C@H]2O[C@H]2C[C@](C)(N)[C@H](O)[C@H](C)O2)Oc2ccc(cc2Cl)[C@H]1O [VAN, vancomycin]
- duration of controlled release [14]: over 20 days
- bioactivity [15]: bioactivity was maintained throughout the release
- treatment efficacy [16]: showed treatment efficacy

B1: ovalbumin (protein, UniProt P01012 2-386, looked up)
Ovalbumin: GSIGAASMEFCFDVFKELKVHHANENIFYCPIAIMSALAMVYLGAKDSTRTQINKVVRFDKLPGFGDSIEAQCGTSVNVHSSLRDILNQITKPNDVYSFSLASRLYAEERYPILPEYLQCVKELYRGGLEPINFQTAADQARELINSWVESQTNGIIRNVLQPSSVDSQTAMVLVNAIVFKGLWEKAFKDEDTQAMPFRVTEQESKPVQMMYQIGLFRVASMASEKMKILELPFASGTMSMLVLLPDEVSGLEQLESIINFEKLTEWTSSNVMEERKIKVYLPRMKMEEKYNLTSVLMAMGITDVFSSSANLSGISSAESLKISQAVHAAHAEINEAGREVVGSAEAGVDAASVSEEFRADHPFLFCIKHIATNAVLFFGRCVSP
notes: model protein (45 kDa) used in initial development of the DDS
- duration of controlled and extended release ([17]; microsphere-hydrogel DDS): approximately 200 days
- extension of release compared to microspheres alone ([17]; microspheres within hydrogel): ~30%
- residual entrapment in hydrogel ([17]; prior study): 8.01±0.76%

Reference: US12599570B2, “Biodegradable extended release microsphere-hydrogel ocular drug delivery system and method” (priority 2015, dated 2026)
